Like-named read-outs stand apart in the source and are kept apart here. Square brackets hold non-standard residues; d marks the D form. Ends that are not written are not given here. Tic = O=C(O)[C@@H]1Cc2ccccc2CN1
T1: human Chemokine like receptor 1 (human, UniProt Q99788 1-373)
T1 sequence (looked up): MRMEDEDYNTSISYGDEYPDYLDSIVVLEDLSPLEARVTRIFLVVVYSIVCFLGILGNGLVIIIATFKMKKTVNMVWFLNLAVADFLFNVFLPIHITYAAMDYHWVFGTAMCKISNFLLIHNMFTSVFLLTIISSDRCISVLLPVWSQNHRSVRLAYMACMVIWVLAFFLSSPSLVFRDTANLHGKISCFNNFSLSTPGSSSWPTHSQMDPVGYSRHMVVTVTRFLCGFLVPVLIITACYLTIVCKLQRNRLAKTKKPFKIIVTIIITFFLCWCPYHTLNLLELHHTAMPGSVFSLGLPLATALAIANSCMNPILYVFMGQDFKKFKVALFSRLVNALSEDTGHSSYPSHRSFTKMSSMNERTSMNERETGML


How the values were obtained:
[1] = target: T1, human Chemokine like receptor 1; assay: cell-based or functional assay
[2] = target: T1, human Chemokine like receptor 1; assay: cell-based or functional assay; remark: listed apart in the source

Binder	EC50 (µM), activation of Tango CMKLR1-bla U2OS cells [1]	EC50 (µM), activation of Tango CMKLR1-bla U2OS cells [2]
{2,3,4‑trihydroxybenzoyl}-[dY]FLP[dS]QF[dA][Tic]S-OH [YW-129]	0.0091 µM	
{2,3‑dihydroxybenzoyl}-[dY]FLP[dS]QF[dA][Tic]S-OH [YW-127]	0.01 µM	
{3,5‑dihydroxybenzoyl}-[dY]FLP[dS]QF[dA][Tic]S-OH [YW-79]	0.0047 µM	

Next, values leading:

EC50 (µM), activation of Tango CMKLR1-bla U2OS cells [1]	EC50 (µM), activation of Tango CMKLR1-bla U2OS cells [2]	Binder
0.02 µM		{2,6‑dihydroxybenzoyl}-[dY]FLP[dS]QF[dA][Tic]S-OH [YW-128]
	0.019 µM	[dY]FLP[dS]QF[dA][Tic]S-OH [YW-3]
